Measurements taken from patent US20160024487.

Columns and labels:
[1] = tested on: T1, Lys(Dnp)-ATNATX4X3PRIVGG-Lys(Abz), X4 = S, X3 = P
T1 sequence: KATNATSPPRIVGGK

[2] = tested on: T2, Lys(Dnp)-ATNATX4X3PRIVGG-Lys(Abz), X4 = N, X3 = H
T2 sequence: KATNATNHPRIVGGK

[3] = tested on: T3, Lys(Dnp)-ATNATX4X3PRIVGG-Lys(Abz), X4 = Q, X3 = Q
T3 sequence: KATNATQQPRIVGGK

[4] = tested on: T4, Lys(Dnp)-ATNATX4X3PRIVGG-Lys(Abz), X4 = S, X3 = W
T4 sequence: KATNATSWPRIVGGK

[5] = tested on: T5, Lys(Dnp)-ATNATX4X3PRIVGG-Lys(Abz), X4 = G, X3 = K
T5 sequence: KATNATGKPRIVGGK

[6] = tested on: T6, Lys(Dnp)-ATNATX4X3PRIVGG-Lys(Abz), X4 = G, X3 = M
T6 sequence: KATNATGMPRIVGGK

[7] = tested on: T7, Lys(Dnp)-ATNATX4X3PRIVGG-Lys(Abz), X4 = G, X3 = H
T7 sequence: KATNATGHPRIVGGK

[8] = tested on: T8, Lys(Dnp)-ATNATX4X3PRIVGG-Lys(Abz), X4 = T, X3 = V
T8 sequence: KATNATTVPRIVGGK

[9] = tested on: T9, Lys(Dnp)-ATNATX4X3PRIVGG-Lys(Abz), X4 = N, X3 = S
T9 sequence: KATNATNSPRIVGGK

[10] = tested on: T10, Lys(Dnp)-ATNATX4X3PRIVGG-Lys(Abz), X4 = S, X3 = G
T10 sequence: KATNATSGPRIVGGK

[11] = tested on: T11, Lys(Dnp)-ATNATX4X3PRIVGG-Lys(Abz), X4 = T, X3 = S
T11 sequence: KATNATTSPRIVGGK

[12] = tested on: T12, Lys(Dnp)-ATNATX4X3PRIVGG-Lys(Abz), X4 = N, X3 = K
T12 sequence: KATNATNKPRIVGGK

[13] = tested on: T13, Lys(Dnp)-ATNATX4X3PRIVGG-Lys(Abz), X4 = G, X3 = S
T13 sequence: KATNATGSPRIVGGK

[14] = tested on: T14, Lys(Dnp)-ATNATX4X3PRIVGG-Lys(Abz), X4 = H, X3 = S
T14 sequence: KATNATHSPRIVGGK

[15] = tested on: T15, Lys(Dnp)-ATNATX4X3PRIVGG-Lys(Abz), X4 = S, X3 = V
T15 sequence: KATNATSVPRIVGGK

[16] = tested on: T16, Lys(Dnp)-ATNATX4X3PRIVGG-Lys(Abz), X4 = F, X3 = D
T16 sequence: KATNATFDPRIVGGK

[17] = tested on: T17, Lys(Dnp)-ATNATX4X3PRIVGG-Lys(Abz), X4 = N, X3 = V
T17 sequence: KATNATNVPRIVGGK

[18] = tested on: T18, Lys(Dnp)-ATNATX4X3PRIVGG-Lys(Abz), X4 = S, X3 = R
T18 sequence: KATNATSRPRIVGGK

[19] = tested on: T19, Lys(Dnp)-ATNATX4X3PRIVGG-Lys(Abz), X4 = D, X3 = G
T19 sequence: KATNATDGPRIVGGK

[20] = tested on: T20, Lys(Dnp)-ATNATX4X3PRIVGG-Lys(Abz), X4 = E, X3 = F
T20 sequence: KATNATEFPRIVGGK

[21] = tested on: T21, Lys(Dnp)-ATNATX4X3PRIVGG-Lys(Abz), X4 = H, X3 = K
T21 sequence: KATNATHKPRIVGGK

[22] = tested on: T22, Lys(Dnp)-ATNATX4X3PRIVGG-Lys(Abz), X4 = Y, X3 = D
T22 sequence: KATNATYDPRIVGGK

[23] = tested on: T23, Lys(Dnp)-ATNATX4X3PRIVGG-Lys(Abz), X4 = S, X3 = F
T23 sequence: KATNATSFPRIVGGK

[24] = tested on: T24, Lys(Dnp)-ATNATX4X3PRIVGG-Lys(Abz), X4 = K, X3 = D
T24 sequence: KATNATKDPRIVGGK

[25] = tested on: T25, Lys(Dnp)-ATNATX4X3PRIVGG-Lys(Abz), X4 = T, X3 = F
T25 sequence: KATNATTFPRIVGGK

[26] = tested on: T26, Lys(Dnp)-ATNATX4X3PRIVGG-Lys(Abz), X4 = Q, X3 = W
T26 sequence: KATNATQWPRIVGGK

[27] = tested on: T27, Lys(Dnp)-ATNATX4X3PRIVGG-Lys(Abz), X4 = H, X3 = A
T27 sequence: KATNATHAPRIVGGK

[28] = tested on: T28, Lys(Dnp)-ATNATX4X3PRIVGG-Lys(Abz), X4 = W, X3 = I
T28 sequence: KATNATWIPRIVGGK

[29] = tested on: T29, Lys(Dnp)-ATNATX4X3PRIVGG-Lys(Abz), X4 = Q, X3 = M
T29 sequence: KATNATQMPRIVGGK

[30] = tested on: T30, Lys(Dnp)-ATNATX4X3PRIVGG-Lys(Abz), X4 = V, X3 = L
T30 sequence: KATNATVLPRIVGGK

[31] = tested on: T31, Lys(Dnp)-ATNATX4X3PRIVGG-Lys(Abz), X4 = Y, X3 = I
T31 sequence: KATNATYIPRIVGGK

[32] = tested on: T32, Lys(Dnp)-ATNATX4X3PRIVGG-Lys(Abz), X4 = N, X3 = Q
T32 sequence: KATNATNQPRIVGGK

[33] = tested on: T33, Lys(Dnp)-ATNATX4X3PRIVGG-Lys(Abz), X4 = G, X3 = Y
T33 sequence: KATNATGYPRIVGGK

[34] = tested on: T34, Lys(Dnp)-ATNATX4X3PRIVGG-Lys(Abz), X4 = G, X3 = A
T34 sequence: KATNATGAPRIVGGK

[35] = tested on: T35, Lys(Dnp)-ATNATX4X3PRIVGG-Lys(Abz), X4 = E, X3 = W
T35 sequence: KATNATEWPRIVGGK

[36] = tested on: T36, Lys(Dnp)-ATNATX4X3PRIVGG-Lys(Abz), X4 = V, X3 = D
T36 sequence: KATNATVDPRIVGGK

[37] = tested on: T37, Lys(Dnp)-ATNATX4X3PRIVGG-Lys(Abz), X4 = G, X3 = P
T37 sequence: KATNATGPPRIVGGK

[38] = tested on: T38, Lys(Dnp)-ATNATX4X3PRIVGG-Lys(Abz), X4 = H, X3 = Y
T38 sequence: KATNATHYPRIVGGK

[39] = tested on: T39, Lys(Dnp)-ATNATX4X3PRIVGG-Lys(Abz), X4 = E, X3 = K
T39 sequence: KATNATEKPRIVGGK

Substance: Human plasma purified Factor Xa
- FXa kcat/KM [1]: 13 M⁻¹ s⁻¹
- FXa kcat/KM [2]: 15 M⁻¹ s⁻¹
- FXa kcat/KM [3]: 1400 M⁻¹ s⁻¹
- FXa kcat/KM [4]: 43 M⁻¹ s⁻¹
- FXa kcat/KM [5]: 34 M⁻¹ s⁻¹
- FXa kcat/KM [6]: 52 M⁻¹ s⁻¹
- FXa kcat/KM [7]: 58 M⁻¹ s⁻¹
- FXa kcat/KM [8]: 20 M⁻¹ s⁻¹
- FXa kcat/KM [9]: 16 M⁻¹ s⁻¹
- FXa kcat/KM [10]: 24 M⁻¹ s⁻¹
- FXa kcat/KM [11]: 16 M⁻¹ s⁻¹
- FXa kcat/KM [12]: 14 M⁻¹ s⁻¹
- FXa kcat/KM [13]: 49 M⁻¹ s⁻¹
- FXa kcat/KM [14]: 60 M⁻¹ s⁻¹
- FXa kcat/KM [15]: 38 M⁻¹ s⁻¹
- FXa kcat/KM [16]: 63 M⁻¹ s⁻¹
- FXa kcat/KM [17]: 17 M⁻¹ s⁻¹
- FXa kcat/KM [18]: 130 M⁻¹ s⁻¹
- FXa kcat/KM [19]: 5.8 M⁻¹ s⁻¹
- FXa kcat/KM [20]: 14 M⁻¹ s⁻¹
- FXa kcat/KM [21]: 28 M⁻¹ s⁻¹
- FXa kcat/KM [22]: 36 M⁻¹ s⁻¹
- FXa kcat/KM [23]: 17 M⁻¹ s⁻¹
- FXa kcat/KM [24]: 45 M⁻¹ s⁻¹
- FXa kcat/KM [25]: 22 M⁻¹ s⁻¹
- FXa kcat/KM [26]: 1400 M⁻¹ s⁻¹
- FXa kcat/KM [27]: 53 M⁻¹ s⁻¹
- FXa kcat/KM [28]: 180 M⁻¹ s⁻¹
- FXa kcat/KM [29]: 2200 M⁻¹ s⁻¹
- FXa kcat/KM [30]: 330 M⁻¹ s⁻¹
- FXa kcat/KM [31]: 66 M⁻¹ s⁻¹
- FXa kcat/KM [32]: 27 M⁻¹ s⁻¹
- FXa kcat/KM [33]: 34 M⁻¹ s⁻¹
- FXa kcat/KM [34]: 50 M⁻¹ s⁻¹
- FXa kcat/KM [35]: 8 M⁻¹ s⁻¹
- FXa kcat/KM [36]: 70 M⁻¹ s⁻¹
- FXa kcat/KM [37]: 7.5 M⁻¹ s⁻¹
- FXa kcat/KM [38]: 41 M⁻¹ s⁻¹
- FXa kcat/KM [39]: 7.9 M⁻¹ s⁻¹
